For assay [1], the target named is T1, GST-CaM7 (Arabidopsis thaliana, UniProt P59220 1-149).
T1 construct: also called pGEX-CaM7
Nature of the assay: pull-down with CTD deletion variants.

Assay [2] deals with T2, CaM7 (calmodulin 7) (Arabidopsis thaliana, UniProt P59220 1-149).
T2 construct: also called AT3G43810; pBudCE4.1-EF-1α-CaM7
Nature of the assay: IP-MS, anti-Flag IP of GLR3.3-3Flag from leaves of transgenic plants; co-enrichment, may be indirect.

For assay [3], the target named is T3, 3Flag-CaM7 (Arabidopsis thaliana, UniProt P59220 1-149).
T3 construct: also called p35S::Flag-CaM7
As to the kind of experiment: Co-IP with anti-GFP agarose from transgenic plants expressing GLR3.3-EGFP and 3Flag-CaM7.

B1: MBP-CD2 (other, not shown: large carriers)
chain: LYFVQIIRQLYKKPTDDAIARMDEKEESKHESKKRKIDGSMNDTSGSTRSRGFDRERSFNSVNPLD
notes: domain: CTD
For B1, the binding result in assay [1] is reported as “no binding”.

B2: GLR3.3-3Flag (receptor)
chain: EKPKVVKIGSIFSFDSVIGKVAKIAIDEAVKDVNSNPDILSGTKFSVSMQNSNCSGFMGMVEALRFMEKDIVGIIGPQCSVVAHMISHMANELRVPLLSFAVTDPVMSPLQFPYFIRTTQSDLYQMDAIASIVDFYGWKEVIAVFVDDDFGRNGVAALNDKLASRRLRITYKAGLHPDTAVNKNEIMNMLIKIMLLQPRIVVIHVYSELGFAVFKEAKYLGMMGNGYVWIATDWLSTNLDSSSPLPAERLETIQGVLVLRPHTPDSDFKREFFKRWRKMSGASLALNTYGLYAYDSVMLLARGLDKFFKDGGNISFSNHSMLNTLGKSGNLNLEAMTVFDGGEALLKDILGTRMVGLTGQLQFTPDRSRTRPAYDIINVAGTGVRQIGYWSNHSGLSTVLPELLYTKEKPNMSTSPKLKHVIWPGETFTKPRGWVFSNNGKELKIGVPLRVSYKEFVSQIRGTENMFKGFCIDVFTAAVNLLPYAVPVKFIPYGNGKENPSYTHMVEMITTGNFDGVVGDVAIVTNRTKIVDFTQPYAASGLVVVAPFKKLNSGAWAFLRPFNRLMWAVTGCCFLFVGIVVWILEHRTNDEFRGPPKRQCVTILWFSFSTMFFAHRENTVSTLGRLVLIIWLFVVLIINSSYTASLTSILTVQQLSSPIKGIESLRERDDPIGYQVGSFAESYLRNELNISESRLVPLGTPEAYAKALKDGPSKGGVAAIVDERPYVELFLSSNCAYRIVGQEFTKSGWGFAFPRDSPLAIDLSTAILELAENGDLQRIHDKWLMKNACTLENAELESDRLHLKSFWGLFLICGVACLLALFLYFVQIIRQLYKKPTDDAIARDQQQNHDSSSMRSTRLQRFLSLMDEKEESKHESKKRKIDGSMNDTSGSTRSRGFDRERSFNSVNPLD
notes: Bait of the IP-MS, expressed in the glr3.3/glr3.6 mutant background; also called p35S::GLR3.3-3Flag; not shown: C-terminal 3Flag tag of vector pCambia1300-3Flag
As to B2, the binding result in assay [2] is recorded as “binds”.

B3: GLR3.3-EGFP (receptor)
chain: EKPKVVKIGSIFSFDSVIGKVAKIAIDEAVKDVNSNPDILSGTKFSVSMQNSNCSGFMGMVEALRFMEKDIVGIIGPQCSVVAHMISHMANELRVPLLSFAVTDPVMSPLQFPYFIRTTQSDLYQMDAIASIVDFYGWKEVIAVFVDDDFGRNGVAALNDKLASRRLRITYKAGLHPDTAVNKNEIMNMLIKIMLLQPRIVVIHVYSELGFAVFKEAKYLGMMGNGYVWIATDWLSTNLDSSSPLPAERLETIQGVLVLRPHTPDSDFKREFFKRWRKMSGASLALNTYGLYAYDSVMLLARGLDKFFKDGGNISFSNHSMLNTLGKSGNLNLEAMTVFDGGEALLKDILGTRMVGLTGQLQFTPDRSRTRPAYDIINVAGTGVRQIGYWSNHSGLSTVLPELLYTKEKPNMSTSPKLKHVIWPGETFTKPRGWVFSNNGKELKIGVPLRVSYKEFVSQIRGTENMFKGFCIDVFTAAVNLLPYAVPVKFIPYGNGKENPSYTHMVEMITTGNFDGVVGDVAIVTNRTKIVDFTQPYAASGLVVVAPFKKLNSGAWAFLRPFNRLMWAVTGCCFLFVGIVVWILEHRTNDEFRGPPKRQCVTILWFSFSTMFFAHRENTVSTLGRLVLIIWLFVVLIINSSYTASLTSILTVQQLSSPIKGIESLRERDDPIGYQVGSFAESYLRNELNISESRLVPLGTPEAYAKALKDGPSKGGVAAIVDERPYVELFLSSNCAYRIVGQEFTKSGWGFAFPRDSPLAIDLSTAILELAENGDLQRIHDKWLMKNACTLENAELESDRLHLKSFWGLFLICGVACLLALFLYFVQIIRQLYKKPTDDAIARDQQQNHDSSSMRSTRLQRFLSLMDEKEESKHESKKRKIDGSMNDTSGSTRSRGFDRERSFNSVNPLD
notes: Used in the Co-IP with anti-GFP magnetic agarose; also called pGLR3.3::GLR3.3-EGFP; not shown: EGFP fusion partner
On to B3, for which, in assay [3], the binding result is “binds”.

(Values after patent US20250270584A1 (University of California, published 2025).)
